This assay addresses Aldehyde dehydrogenase 7A1 (full-length recombinant human cytosolic ALDH7A1 isoform 2) (human). Put plainly: SAXS.

The stoichiometry N is the number of molecules, sites or subunits per partner or assembly. For “Aldehyde dehydrogenase 7A1 (full-length recombinant human cytosolic ALDH7A1 isoform 2) (enzyme)”, the stoichiometry N was 4.

These data come from paper PMC4565128.
